Test results as given in patent publication US20120003684A1, “Method and Means for Detecting the Activity of Osteoclasts” (TECHNISCHE UNIVERSITAET DRESDEN, priority 2009, published 2012).

B1: MCSF: macrophage colony-stimulating factor, cytokine added for osteoclast differentiation (protein, UniProt P09603 33-554, looked up)
Macrophage colony-stimulating …: EEVSEYCSHMIGSGHLQSLQRLIDSQMETSCQITFEFVDQEQLKDPVCYLKKAFLLVQDIMEDTMRFRDNTPNAIAIVQLQELSLRLKSCFTKDYEEHDKACVRTFYETPLQLLEKVKNVFNETKNLLDKDWNIFSKNCNNSFAECSSQDVVTKPDCNCLYPKAIPSSDPASVSPHQPLAPSMAPVAGLTWEDSEGTEGSSLLPGEQPLHTVDPGSAKQRPPRSTCQSFEPPETPVVKDSTIGGSPQPRPSVGAFNPGMEDILDSAMGTNWVPEEASGEASEIPVPQGTELSPSRPGGGSMQTEPARPSNFLSASSPLPASAKGQQPADVTGTALPRVGPVRPTGQDWNHTPQKTDHPSALLRDPPEPGSPRISSLRPQGLSNPSTLSAQPQLSRSHSSGSVLPLGELEGRRSTRDRRSPAEPEGGPASEGAARPLPRFNSVPLTDTGHERQSEGSFSPQLQESVFHLLVPSVILVLLAVGGLLFYRWRRRSHQEPQRADSPLEQPEGSPLTQDDRQVELPV
B2: interferon-y: inhibitor of osteoclast activity (protein, UniProt P01579 24-161, looked up)
Interferon gamma: QDPYVKEAENLKKYFNAGHSDVADNGTLFLGILKNWKEESDRKIMQSQIVSFYFKLFKNFKDDQSIQKSVETIKEDMNVKFFNSNKKKRDDFEKLTNYSVTDLNVQRKAIHELIQVMAELSPAAKTGKRKRSQMLFRG

Columns and labels:
[1] = tested on: primary mouse osteoclast precursor cells (primary mouse bone marrow monocytes); assay: osteoclast resorption assay on bio-mineralized matrix, MCSF dependency (FIG. 1); format: cell-based; conditions: RANKL (40 ng/ml) present, as a function of MCSF concentration
Description: The sequence is divided into two phases. In phase I, the matrix synthesis with osteoblasts occurs; the latter, after production of the matrix (approximately 25 days), are removed from the matrix. The subsequent phase II encompasses the use of the matrix for the osteoclast resorption assay. In this connection, the method in this example was employed in order to examine the resorption activity of primary mouse osteoclast precursor cells (primary mouse bone marrow monocytes) as a function of the concentration of MCSF (macrophage colony-stimulating factor).
(§1) For the synthesis of a bone-like physiological matrix, the human osteoblast precursor cell line SAOS-2 (DSMZ ACC 243, DSMZ, Braunschweig) is used in this embodiment. The cells are seeded on cell culturing plates. […]
(§2) The resorption assay is based on the combination of two methods with each other. […] For determining the resorption surface area the dried plates were subsequently scanned by a transmitted light scanner and evaluated e.g. by means of Image Quant. In this connection, the scanned surface area was determined and white surfaces differentiated from black surfaces. The volume of the white surface area can then be calculated by means of the calibration line (see FIG. 2) into the actual resorted surface area.

[2] = tested on: osteoclasts differentiated by RANKL from mouse osteoclast precursor cell line RAW 264.7; assay: osteoclast resorption assay on bio-mineralized matrix, inhibition study (FIG. 4); format: cell-based; conditions: RAW 264.7 differentiated by RANKL addition (40 ng/ml)
Procedure: Moreover, particularly in medical research the examination of inhibiting materials or activators of osteoclast activity is especially of interest. As an example, in FIG. 4 it is shown that the osteoclast activity depends on the inhibitor interferon-y. The osteoclasts were differentiated by RANKL addition (40 ng/ml)) from a mouse osteoclast precursor cell line (RAW 264.7). […] Accordingly, the invention can also be utilized for inhibition studies in relation to osteoclast resorption activity.
as §1, with “plates. The differentiation of the cells is realized by addition of ascorbate (300 μmol/l) and β-glycerophosphate (10 mmol/l) to the medium (alpha MEM, Biochrom, 10% FCS).” for “plates.”
as §2

Row | Molecule | resorption activity of the differentiated osteoclasts [1] | osteoclast activity (resorption activity) [2]
1 | B1 | depends on the quantity of added MCSF | –
2 | B2 | – | concentration-dependent inhibition
